Experiments:
[1] = biological target: T1, Recombinant Human DLL3 Protein (amino acids Ala27-Ala479, cat #9749-DL, R&D Systems) (human, UniProt Q9NYJ7 27-479); assay: BLI, Octet HTX, 25 C; mAb on anti-mouse Fc sensors, DLL3 as analyte from 200 nM
T1 construct: Bought protein
T1 sequence: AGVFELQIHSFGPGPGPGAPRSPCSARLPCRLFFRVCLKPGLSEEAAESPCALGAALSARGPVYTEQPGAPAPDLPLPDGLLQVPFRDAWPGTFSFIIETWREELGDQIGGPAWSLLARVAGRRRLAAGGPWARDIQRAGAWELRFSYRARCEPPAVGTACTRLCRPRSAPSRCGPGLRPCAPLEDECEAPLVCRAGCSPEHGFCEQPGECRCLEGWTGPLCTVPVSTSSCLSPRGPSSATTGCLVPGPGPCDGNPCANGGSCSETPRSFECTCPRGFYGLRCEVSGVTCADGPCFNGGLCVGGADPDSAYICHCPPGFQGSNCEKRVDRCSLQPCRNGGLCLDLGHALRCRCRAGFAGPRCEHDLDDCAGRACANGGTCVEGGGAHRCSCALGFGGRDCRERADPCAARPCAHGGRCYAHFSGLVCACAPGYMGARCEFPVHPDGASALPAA

[2] = biological target: hDLL4 (human, UniProt Q9NR61 27-524, limits assumed); assay: ELISA; signal unit not stated
[3] = biological target: T2, hDLL3 (human, UniProt Q9NYJ7 27-479, limits assumed); assay: ELISA; signal unit not stated
T2 construct: also called human DLL3
T2 sequence: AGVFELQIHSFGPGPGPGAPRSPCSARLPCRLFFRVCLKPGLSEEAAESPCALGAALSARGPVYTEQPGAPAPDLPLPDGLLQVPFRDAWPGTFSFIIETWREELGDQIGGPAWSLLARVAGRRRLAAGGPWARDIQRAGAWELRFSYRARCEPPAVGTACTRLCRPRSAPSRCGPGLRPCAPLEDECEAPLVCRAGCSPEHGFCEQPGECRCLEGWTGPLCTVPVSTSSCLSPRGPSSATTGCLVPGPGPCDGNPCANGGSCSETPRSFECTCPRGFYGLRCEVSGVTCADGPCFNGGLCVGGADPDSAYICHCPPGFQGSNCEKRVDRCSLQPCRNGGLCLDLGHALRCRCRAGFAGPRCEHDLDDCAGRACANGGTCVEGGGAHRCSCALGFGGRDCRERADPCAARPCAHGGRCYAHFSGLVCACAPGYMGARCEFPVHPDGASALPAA

[4] = biological target: T2, hDLL3; assay: method not stated (column 'Affinity hDLL3')

hDLL4, sequence (Q9NR61 27-524 limits assumed): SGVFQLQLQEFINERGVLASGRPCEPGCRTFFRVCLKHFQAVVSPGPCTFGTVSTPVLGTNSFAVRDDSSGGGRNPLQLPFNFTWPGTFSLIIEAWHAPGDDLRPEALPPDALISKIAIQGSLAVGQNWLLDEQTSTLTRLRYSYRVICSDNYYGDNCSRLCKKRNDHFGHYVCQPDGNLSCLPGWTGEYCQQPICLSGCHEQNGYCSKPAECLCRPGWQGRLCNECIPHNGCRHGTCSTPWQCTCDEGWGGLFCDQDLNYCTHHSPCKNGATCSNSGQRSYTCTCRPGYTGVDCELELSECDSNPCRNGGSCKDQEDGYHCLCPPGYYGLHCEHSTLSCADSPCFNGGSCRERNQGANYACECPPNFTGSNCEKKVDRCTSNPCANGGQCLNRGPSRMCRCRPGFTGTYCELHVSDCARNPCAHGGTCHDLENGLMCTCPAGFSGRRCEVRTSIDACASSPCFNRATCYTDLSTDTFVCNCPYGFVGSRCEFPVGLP

B1: B22 (antibody, V domains shown)
VH: EVQLVESGGGLVQPGGSLRLSCAASGFTFNNFWMSWVRQAPGKGLEWVANIKQDGSEKYYVDSVKGRFTISRDNAKNSLYLQMNSLRAEDTAVYYCARESYFDLWGRGTLVTVSS
VL: QAVVTQESALTTSPGETVTLTCRSSTGAVTTSNYANWVQEKPDHLFTGLIGGTNNRAPGVPARFSGSLIGDKAALTITGAQTEDEAIYFCALWYSNRWVFGGGTKLTVL
notes: Purified hybridoma monoclonal antibody; loaded on anti-mouse Fc sensors in BLI
Kd [1]: 1.84 nM

B2: J8 (antibody, V domains shown)
VH: QVHLVQSGAEVKKPGASVKVSCKASGYTFTIYYIHWVRQAPGQGLEWMGIINPSGGSTSYAQKFQGRVTMTRDTSTSTVYMELSSLRSEDTAVYYCSGNDYVDYVTTDYYGMDVWGQGTTVTVSS
VL: DIQMTQSPSSLSASVGDRVTITCRASQGISNYLAWFQQKPGKAPKSLIYAASSLQSGVPSKFSGSGSGTDFTLTISSLQPEDFATYYCQQYNSSPYTFGQGTKLEIK
ELISA hDLL4 [2]: 0.085 | ELISA hDLL3 [3]: 1.38 | Kd [4]: < 0.001 nM | Kd [1]: 0.001 nM

B3: O24 (antibody, V domains shown)
VH: QVQLVQSGAEVKKPGASVKVSCKASGYTFTSYYLHWVRQAPGHGLEWMAIINPSGGSTSYAQKFLGRVTMTRDTSTNTVYMELSSLRSEDTAVYYCARERQQLDYYYFAMDVWGQGTTVTVSS
VL: DIQMTQSPSSLSASVGDRVTITCRASQGISNYLAWFQQKPGKAPKSLIYAASSLQSGVPSKFSGSGSGTDFTLTISSLQPEDFATYYCQQYNSYPPTFGQGTKVEIK
notes: the description prints the designation as '024' (zero); also called 024
Kd [1]: 1.28 nM

B4: E9 (antibody, V domains shown)
VH: QVQLVQSGAEVKKPGASVKVSCKASGYTFTSYYMHWVRQAPGQGLEWMGVINSSGGSTSYAQKFQGRVTMTRDTSTSTVYMDLSSLRSEDTAVYYCARGYCTNGVYYDEDFDYWGQGTLVTVSS
VL: DIQMTQSPSSLSASVGDRVTITCRASQGISHYLAWFQQKPGKAPTSLIYAASSLQSGVPSKFSGSGSGTDFTLTISSLQPEDFATYYCQQYNSYPLTFGGGTKVEIK
notes: Purified hybridoma monoclonal antibody (Ablexis AlivaMab Kappa mice); loaded on anti-mouse Fc sensors in BLI
Kd [1]: 0.3 nM

B5: B2 (antibody, V domains shown)
VH: QVQLVQSGAEVKKPGASVKVSCKASGYTFTSYYMHWVRQAPGQGLEWMGIINPSGGSTSYAQKFRGRVTMTRDTSTSTVYMELSSLRSEDTAVYYCARGDYDILTDYYYNMDVWGQGTTVTVSS
VL: DIQMTQSPSAMSASVGDRVTITCRASQGISNYLAWFQQKPGKVPKRLIYAASSLQSGVPSRFSGSGSGTEFTLTISSLQPEDFATYYCLQHNSYPYTFGQGTKLEIK
ELISA hDLL4 [2]: 0.043 | ELISA hDLL3 [3]: 1.21 | Kd [1]: 1.46 nM

B6: F9 (antibody, V domains shown)
VH: QVQLVQSGAEVKKPGASVQVSCKASGYTFTSYYMHWVRQAPGQGLEWMGIINPSGGSTSYAQKFQGRVTMTRDTSTSTVYMELSSLRSEDTAVYYCARQGGAQWLVLAFDIWGQGTMVTVSS
VL: EIVLTQSPGTLSLSPGERATLSCRASQSVSSYLAWYQQKPGQPPRLLIYGASSRATGIPDRFSGGGSGTDFTLTISRLEPEDFAVYYCQQYDSSPYTFGQGTKLEIK
notes: also called 1F9
Kd [1]: 3.01 nM

B7: G16 (antibody, V domains shown)
VH: QVQLVQSGAEVKKPGASVQVSCKASGYTFTSYYMHWVRQAPGQGLEWMGIINPSGGSTSYAQKFQGRVTMTRDTSTSTVYMELSSLRSEDTAVYYCARQGGAQWLVLAFDIWGQGTMVTVSS
VL: EIVLTQSPGTLSLSPGERATLSCRASQSVSSYLAWYQQKPGQAPRLLIYGASSRATGIPDRFSGGGSGTDFTLTISRLEPEDFAVYYCQQYGSSPYTFGQGTKLEIK
notes: as for B1
Kd [1]: 4.88 nM

B8: L22 (antibody, V domains shown)
VH: EVQLLESGGGLVQPGGSLRLSCAASGFTFSSYAMGWVRQTPGKGLEWVSTISGRGGDTYYADSVKGRFTISRDNSKNTLYLQMNSLRAEDTAIYYCAKERGLGFDYWGQGTLVTVSS
VL: DIVMTQTPLSLPVTPGEPASISCRSSQSLLDSDDGNTYLDWYLQKPGQSPQLLIYTLSYRASGVPDRFSGSGSGTDFTLKISRVEAEDVGVYYCMQHLEFPLTFGGGTKVEIK
ELISA hDLL4 [2]: 0.056 | ELISA hDLL3 [3]: 1.64 | Kd [4]: 1.46 nM | Kd [1]: 3.55 nM

B9: A18 (antibody, V domains shown)
VH: QVTLRESGPALVKSTQTLTLTCTFSGFSLSTSGMCVSWIRQTPGKALEWLALIDWDDNKYYSTSLKTRLIISKDTSKNQVVLTMTNMEPVDTATYYCARIRGYSGSYDAFDIWGQGTMVTVSS
VL: DIVMTQSPLSLPVTPGEPASISCRSSQSLLHSNGYNYLDWYLQKPGQSPHILLYLGSNRAPGVPDRFSGSGSGTDFTLKISRVEAEDVGVYYCMQALQTPFTFGPGTKVDIK
notes: Purified hybridoma monoclonal antibody
Kd [1]: 0.236 nM

B10: D8 (antibody, V domains shown)
VH: QVQLVQSGAEVKKPGASVKVSCKASGYTFTTYYMHWVRQAPGQGLEWMGIINPSGGSTSYAQKFQGRVTMTRDTSTSTVYMELSSLRSEDTAVYYCARQGHYIGNYLDYWGQGTLVTVSS
VL: not shown
notes: as for B1
Kd [1]: 0.438 nM

B11: L12 (antibody, V domains shown)
VH: QVQLVQSGAEVKKPGASVKVSCKASGYTFTSYYMHWVRQAPGQGLEWMGIINPSGGSRSYAQKFQGRVTMTRDTSTSTVYMELSSLRSEDTAVYYCARQLELLGNAFDIWGQGTMVTVSS
VL: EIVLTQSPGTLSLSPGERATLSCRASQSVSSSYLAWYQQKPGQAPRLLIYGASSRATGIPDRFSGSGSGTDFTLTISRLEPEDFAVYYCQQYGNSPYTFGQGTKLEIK
notes: as for B1
Kd [1]: 3.1 nM

B12: C22 (antibody, V domains shown)
VH: QVQLVQSGAEVKKPGASVKVSCKASGYTFTSYYMHWVRQAPGQGLEWMGIINPSGGSTSYAQKFQGRVTMTRDTSTSTVYMELSSLRSEDTAVYYCARVADIVGATFDYWGQGTLVTVSS
VL: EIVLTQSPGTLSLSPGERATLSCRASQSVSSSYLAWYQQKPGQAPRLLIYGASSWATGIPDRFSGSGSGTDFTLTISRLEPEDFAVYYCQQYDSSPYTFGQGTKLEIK
notes: as for B1
Kd [1]: 0.431 nM

B13: J23 (antibody, V domains shown)
VH: QVQLVQSGAEVKKPGASVKVSCKASGYTFTSYYMHWVRQAPGQGLEWMGIINYSGGSKSYAQKFQGRVTMTRDTSTSTVYMELSSLRSEDTGVYYCARQGRYSGSYLDYWGQGTLVTVSS
VL: not shown
notes: as for B1
Kd [1]: 0.998 nM

B14: M11 (antibody, V domains shown)
VH: QVQLVQSGAEVKKPGASVKVSCKASGYTFTSYYIHWVRQAPGQGLEWMGIINPSGGSKSYAQKFQGRVTMTRDTSTGTVYMELSSLRSEDTAVYYCAGQLELLGNAFDIWGQGTMVTVSS
VL: not shown
notes: as for B1
Kd [1]: 2.76 nM

B15: F21 (antibody, V domains shown)
VH: EVQLVESGGGLVQPGGSLRLSCAASGFTFSSYWMSWVRQAPGKGLEWVANIKQDGSEKYYVDSVKGRFTISRDNAKNSLYLQMNSLRAEDTAVYYCAREWLRFGGLVYWGQGTLVTVSS
VL: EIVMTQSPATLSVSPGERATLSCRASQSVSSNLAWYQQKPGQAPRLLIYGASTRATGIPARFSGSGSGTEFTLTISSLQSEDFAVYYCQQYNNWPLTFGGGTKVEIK
notes: as for B1
Kd [1]: 6.12 nM

B16: E23 (antibody, V domains shown)
VH: QVQLVQSGAEVRKPGASVKVSCKASGYTFTGYYMHWVRQAPGQGLEWMGWINSYSGGANYAQKFQDRVTMTRDTSVSTASMELSRLRSDDTAVYYCARDGSGWYGSYFDFWGQGTLVTVSS
VL: DIVMTQTPLSSPVTLGQPASISCRSSQSLVHSDGNTYLSWLQQRPGQPPRLLIYKISNRFSGVPDRFSGSGAGTDFTLKISRVEAEDVGFYYCIQTTQFPLTFGGGTKVEIK
notes: loaded on anti-mouse Fc sensors in BLI
Kd [1]: 0.511 nM

B17: G3 (antibody, V domains shown)
VH: QVQLQESGPGLVKPSETLFLTCTVSGGSISSYYWTWIRQPAGKGLEWIGRIYTSGSTNYNPSLKSRVTMSVDTSKNQFSLKLSSVTAADTAVYYCAREDWESWTFDIWGQGTMVTVSS
VL: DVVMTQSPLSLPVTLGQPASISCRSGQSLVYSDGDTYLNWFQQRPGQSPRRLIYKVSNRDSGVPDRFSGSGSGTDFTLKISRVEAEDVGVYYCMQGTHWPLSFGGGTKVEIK
notes: as for B1
Kd [1]: 0.908 nM

B18: P4 (antibody, V domains shown)
VH: EVQLVESGGGLVKPGGSLRLSCAASGFTFSFYSMNWVRQAPGKGLEWVSSISSSSSYIYYADSVKGRFTISRDNAKNSLYLQMNSLRAEDTAVYYCARNYDFWRGAFDIWGQGTMVTVSS
VL: not shown
notes: as for B1
Kd [1]: 6.5 nM

Reference: patent publication US20240216557A1 (Memorial Sloan Kettering, published 2024)
